Data on four molecules can be found in patent publication US20090111753A1, “Nogo-A Polypeptide Fragments, Variant Nogo Receptor-1 Polypeptides, and Uses Thereof” (Yale University, priority 2004, published 2009).

The labels stand for the following.
B1: 133, 136: human NgR1 mutant, listed residues mutated to alanine (protein)
chain: CPGACVCYNEPKVTTSCPQQGLQAVPVGIPAASQRIFLHGNRISHVPAASFRACRNLTILWLHSNVLARIDAAAFTGLALLEQLDLSDNAQLRSVDPATFHGLGRLATLALDRCGLQELGPGLFRGLAALQYLYLQDNALQALPDDTFRDLGNLTHLFLHGNRISSVPERAFRGLHSLDRLLLHQNRVAHVHPHAFRDLGRLMTLYLFANNLSALPTEALAPLRALQYLRLNDNPWVCDCRARPLWAWLQKFRGSSSEVPCSLPQRLAGRDLKRLAANDLQGCAVATGPYHPIWTGRATDEEPLGLPKCCQPDAADKASVLEPGRPASAGNALKGRVPPGDSPPGNGSGPRHINDSPFGTLPGSAEPPLTAVRPEGSEPPGFPTSGPRRRPGCSRKNRTRSHCRLGQAGSGGGGTGDSEGSGALPSLTCSLTPLGLALVLWTVLGPC
B2: 158, 160: human NgR1 mutant, listed residues mutated to alanine (protein)
chain: CPGACVCYNEPKVTTSCPQQGLQAVPVGIPAASQRIFLHGNRISHVPAASFRACRNLTILWLHSNVLARIDAAAFTGLALLEQLDLSDNAQLRSVDPATFHGLGRLHTLHLDRCGLQELGPGLFRGLAALQALALQDNALQALPDDTFRDLGNLTHLFLHGNRISSVPERAFRGLHSLDRLLLHQNRVAHVHPHAFRDLGRLMTLYLFANNLSALPTEALAPLRALQYLRLNDNPWVCDCRARPLWAWLQKFRGSSSEVPCSLPQRLAGRDLKRLAANDLQGCAVATGPYHPIWTGRATDEEPLGLPKCCQPDAADKASVLEPGRPASAGNALKGRVPPGDSPPGNGSGPRHINDSPFGTLPGSAEPPLTAVRPEGSEPPGFPTSGPRRRPGCSRKNRTRSHCRLGQAGSGGGGTGDSEGSGALPSLTCSLTPLGLALVLWTVLGPC
B3: 182, 186: human NgR1 mutant, listed residues mutated to alanine (protein)
chain: CPGACVCYNEPKVTTSCPQQGLQAVPVGIPAASQRIFLHGNRISHVPAASFRACRNLTILWLHSNVLARIDAAAFTGLALLEQLDLSDNAQLRSVDPATFHGLGRLHTLHLDRCGLQELGPGLFRGLAALQYLYLQDNALQALPDDTFRDLGNLTALFLAGNRISSVPERAFRGLHSLDRLLLHQNRVAHVHPHAFRDLGRLMTLYLFANNLSALPTEALAPLRALQYLRLNDNPWVCDCRARPLWAWLQKFRGSSSEVPCSLPQRLAGRDLKRLAANDLQGCAVATGPYHPIWTGRATDEEPLGLPKCCQPDAADKASVLEPGRPASAGNALKGRVPPGDSPPGNGSGPRHINDSPFGTLPGSAEPPLTAVRPEGSEPPGFPTSGPRRRPGCSRKNRTRSHCRLGQAGSGGGGTGDSEGSGALPSLTCSLTPLGLALVLWTVLGPC
B4: 232, 234: human NgR1 mutant, listed residues mutated to alanine (protein)
chain: CPGACVCYNEPKVTTSCPQQGLQAVPVGIPAASQRIFLHGNRISHVPAASFRACRNLTILWLHSNVLARIDAAAFTGLALLEQLDLSDNAQLRSVDPATFHGLGRLHTLHLDRCGLQELGPGLFRGLAALQYLYLQDNALQALPDDTFRDLGNLTHLFLHGNRISSVPERAFRGLHSLDRLLLHQNRVAHVHPHAFRDLGRLMTLALAANNLSALPTEALAPLRALQYLRLNDNPWVCDCRARPLWAWLQKFRGSSSEVPCSLPQRLAGRDLKRLAANDLQGCAVATGPYHPIWTGRATDEEPLGLPKCCQPDAADKASVLEPGRPASAGNALKGRVPPGDSPPGNGSGPRHINDSPFGTLPGSAEPPLTAVRPEGSEPPGFPTSGPRRRPGCSRKNRTRSHCRLGQAGSGGGGTGDSEGSGALPSLTCSLTPLGLALVLWTVLGPC

In the assay the test system is NgR ligands. In words: Binding of alanine substituted NgR mutants to NgR ligands, summary categories. The settings on record: AP-Nogo66, AP-B4C, AP-B4C66, AP-Lingo-1, AP-OMgp and AP-MAG; compared to wild type NgR. An excerpt: To better define how multiple ligands bind to the NgR protein, we examined a series of Ala-substituted NgR for ligand binding activity. NgR mutagenesis was done using the Quick Change Multisite Directed Mutagenesis Kit (Stratagene catalog #200514). Human NgR1 was used as a template. Ala substitutions were generated for each of the charged residues predicted to be solvent accessible at the surface of the ligand binding domain of NgR (Barton, W. A., et al., Embo J. 22:3291-3302 (2003); He, X. L., et al., Neuron 38:177-185 (2003)). We generated mutants in which 1-8 surface residues localized within 5 A of one another were Ala-substituted. Because of the coiling nature of the LRR structure, as residues juxtaposed on the protein surface are commonly separated by approximately 25 residues in the primary structure. In addition to mutations in specific charged surface patches, other mutations were targeted to glycosylation sites and to regions predicted to be involved in ligand binding based on the NgR structure (Barton, W. A., et al., Embo J. 22:3291-3302 (2003); He, X. L., et al., Neuron 38:177-185 (2003)). In addition, a variant corresponding to a human polymorphism was examined (D259N). None of the mutations altered the Leu residues that define the LRR structure itself or the Cys residues critical in the amino and carboxyl terminal capping domains. The vast majority of such Ala surface substitution mutants were expressed as immunoreactive polypeptides with a molecular weight and an expression level indistinguishable from wild type NgR (FIG. 4C and data not shown).
This collection of 74 individual NgR mutants was interrogated for AP-Nogo-66, AP-Amino-Nogo-B4C, AP-MAG, AP-OMgp, and AP-Lingo-1 binding. AP-Nogo66, AP-MAG, AP-OMGP and AP-Lingo-1 constructs are described elsewhere (Fournier, A. E., et al., Nature 409:341-346 (2001); Liu, B. P., et al., Science 297:1190-1193 (2002); Mi, S., et al., Nat. Neurosci. 7:221-228 (2004); Wang, K. C., et al., Nature 417:941-944 (2002b)). The properties of the NgR mutants fell into one of three major categories (Table II and FIG. 5). A number of Ala substituted NgR polypeptides bound all of the ligands at wild type levels. […] In addition, a significant extent of the concave surface is dispensable for ligand binding.
Alanine substituted NgR mutants were tested for their binding to AP-Nogo66, AP-B4C, AP-B4C66, AP-Lingo-1, AP-OMgp and AP-MAG and they fall into three categories: (1) Mutants that lose binding to all NgR ligands. (2) Mutants that still maintain binding to all NgR ligands. […] The D259N mutant is an asparagine substitution to mimic a human polymorphism.
Turning to B1, the “ligand binding category of NgR mutant (Table II)” value (“ligand binding category” for short) is reported as “No binding”.

For B2, the “ligand binding category” value is given as “No binding”.

Regarding B3, the “ligand binding category” value is on record as “No binding”.

Regarding B4, the “ligand binding category” value is “No binding”.
